Experimental data taken from US20160347850A1 (AbbVie / Abbott, published 2016).

Tests used:
Human CD40 [1] = target: T1, Human CD40 (human, UniProt P25942 21-277); assay: cell-based or functional assay
Human CD40 [2] = target: T1, Human CD40; assay: cell-based or functional assay; remark: listed apart in the source

T1 sequence (P25942 21-277 limits assumed): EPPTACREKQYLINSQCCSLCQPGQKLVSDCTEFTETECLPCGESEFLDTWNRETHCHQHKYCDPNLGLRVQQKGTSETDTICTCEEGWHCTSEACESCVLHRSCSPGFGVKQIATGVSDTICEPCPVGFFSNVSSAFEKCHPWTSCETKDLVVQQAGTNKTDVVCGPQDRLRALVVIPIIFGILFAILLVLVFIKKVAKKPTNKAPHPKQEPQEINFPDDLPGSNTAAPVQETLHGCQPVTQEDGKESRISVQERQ

Antagonist: Jurkat/Reporter assay (IC50 nM) (Human CD40 [2]) | Binder | further results
– | huAb1v6 (antibody, V domains shown) VH: EVQLVESGGGLVKPGGSLRLSCAASGFTFSDYGMNWVRQAPGKGLEWIAYISSGRSNIYYADTVKGRFTISRDNAKNSLYLQMNSLRAEDTAVYYCARSWGYFDVWGQGTTVTVSS VL: DIVMTQSPDSLAVSLGERATINCKSSQSLLNLGNQKNYLTWFQQKPGQPPKLLIYWASTRESGVPDRFSGSGSGTDFTLTISSLQAEDVAVYYCQNDYTYPLTFGQGTKLEIK | Antagonist: Jurkat/Reporter assay IC50 (Human CD40 [1]): 85 nM
> 1000 nM | huAb1v1CDR2v11 (antibody, V domains shown) VH: EVQLVESGGGLVKPGGSLRLSCAASGFTFSDYGMNWVRQAPGKGLEWIAYISSGRMNIYYADTVKGRFTISRDNAKNSLYLQMNSLRAEDTAVYYCARSWGYFDVWGQGTTVTVSS VL: DIVMTQSPDSLAVSLGERATINCKSSQSLLNRGNQKNYLTWFQQKPGQPPKLLIYWASTRESGVPDRFSGSGSGTDFTLTISSLQAEDVAVYYCQNDYTYPLTFGQGTKLEIK | –
7.06 nM | huAb1v1CDR2v9 (antibody, V domains shown) VH: EVQLVESGGGLVKPGGSLRLSCAASGFTFSDYGMNWVRQAPGKGLEWIAYISSGRQNIYYADTVKGRFTISRDNAKNSLYLQMNSLRAEDTAVYYCARSWGYFDVWGQGTTVTVSS VL: DIVMTQSPDSLAVSLGERATINCKSSQSLLNRGNQKNYLTWFQQKPGQPPKLLIYWASTRESGVPDRFSGSGSGTDFTLTISSLQAEDVAVYYCQNDYTYPLTFGQGTKLEIK | –
62.4 nM | huAb1v1CDR2v13 (antibody, V domains shown) VH: EVQLVESGGGLVKPGGSLRLSCAASGFTFSDYGMNWVRQAPGKGLEWIAYISSGRHNIYYADTVKGRFTISRDNAKNSLYLQMNSLRAEDTAVYYCARSWGYFDVWGQGTTVTVSS VL: DIVMTQSPDSLAVSLGERATINCKSSQSLLNRGNQKNYLTWFQQKPGQPPKLLIYWASTRESGVPDRFSGSGSGTDFTLTISSLQAEDVAVYYCQNDYTYPLTFGQGTKLEIK | –
219 nM | huAb1v1CDR2v3 (antibody, V domains shown) VH: EVQLVESGGGLVKPGGSLRLSCAASGFTFSDYGMNWVRQAPGKGLEWIAYISSGRENIYYADTVKGRFTISRDNAKNSLYLQMNSLRAEDTAVYYCARSWGYFDVWGQGTTVTVSS VL: DIVMTQSPDSLAVSLGERATINCKSSQSLLNRGNQKNYLTWFQQKPGQPPKLLIYWASTRESGVPDRFSGSGSGTDFTLTISSLQAEDVAVYYCQNDYTYPLTFGQGTKLEIK | –
> 1000 nM | huAb1v1CDR2v1 (antibody, V domains shown) VH: EVQLVESGGGLVKPGGSLRLSCAASGFTFSDYGMNWVRQAPGKGLEWIAYISSGRTNIYYADTVKGRFTISRDNAKNSLYLQMNSLRAEDTAVYYCARSWGYFDVWGQGTTVTVSS VL: DIVMTQSPDSLAVSLGERATINCKSSQSLLNRGNQKNYLTWFQQKPGQPPKLLIYWASTRESGVPDRFSGSGSGTDFTLTISSLQAEDVAVYYCQNDYTYPLTFGQGTKLEIK | –
340 nM | huAb1v1CDR2v15 (antibody, V domains shown) VH: EVQLVESGGGLVKPGGSLRLSCAASGFTFSDYGMNWVRQAPGKGLEWIAYISSGRYNIYYADTVKGRFTISRDNAKNSLYLQMNSLRAEDTAVYYCARSWGYFDVWGQGTTVTVSS VL: DIVMTQSPDSLAVSLGERATINCKSSQSLLNRGNQKNYLTWFQQKPGQPPKLLIYWASTRESGVPDRFSGSGSGTDFTLTISSLQAEDVAVYYCQNDYTYPLTFGQGTKLEIK | –
563 nM | huAb1v1CDR2v4 (antibody, V domains shown) VH: EVQLVESGGGLVKPGGSLRLSCAASGFTFSDYGMNWVRQAPGKGLEWIAYISSGRRNIYYADTVKGRFTISRDNAKNSLYLQMNSLRAEDTAVYYCARSWGYFDVWGQGTTVTVSS VL: DIVMTQSPDSLAVSLGERATINCKSSQSLLNRGNQKNYLTWFQQKPGQPPKLLIYWASTRESGVPDRFSGSGSGTDFTLTISSLQAEDVAVYYCQNDYTYPLTFGQGTKLEIK | –
> 1000 nM | huAb1v1CDR2v6 (antibody, V domains shown) VH: EVQLVESGGGLVKPGGSLRLSCAASGFTFSDYGMNWVRQAPGKGLEWIAYISSGRLNIYYADTVKGRFTISRDNAKNSLYLQMNSLRAEDTAVYYCARSWGYFDVWGQGTTVTVSS VL: DIVMTQSPDSLAVSLGERATINCKSSQSLLNRGNQKNYLTWFQQKPGQPPKLLIYWASTRESGVPDRFSGSGSGTDFTLTISSLQAEDVAVYYCQNDYTYPLTFGQGTKLEIK | –
504 nM | huAb1v1CDR2v17 (antibody, V domains shown) VH: EVQLVESGGGLVKPGGSLRLSCAASGFTFSDYGMNWVRQAPGKGLEWIAYISSGRPNIYYADTVKGRFTISRDNAKNSLYLQMNSLRAEDTAVYYCARSWGYFDVWGQGTTVTVSS VL: DIVMTQSPDSLAVSLGERATINCKSSQSLLNRGNQKNYLTWFQQKPGQPPKLLIYWASTRESGVPDRFSGSGSGTDFTLTISSLQAEDVAVYYCQNDYTYPLTFGQGTKLEIK | –
30.1 nM | huAb1v1CDR2v16 (antibody, V domains shown) VH: EVQLVESGGGLVKPGGSLRLSCAASGFTFSDYGMNWVRQAPGKGLEWIAYISSGRANIYYADTVKGRFTISRDNAKNSLYLQMNSLRAEDTAVYYCARSWGYFDVWGQGTTVTVSS VL: DIVMTQSPDSLAVSLGERATINCKSSQSLLNRGNQKNYLTWFQQKPGQPPKLLIYWASTRESGVPDRFSGSGSGTDFTLTISSLQAEDVAVYYCQNDYTYPLTFGQGTKLEIK | –
23 nM | huAb1v1CDR2v10 (antibody, V domains shown) VH: EVQLVESGGGLVKPGGSLRLSCAASGFTFSDYGMNWVRQAPGKGLEWIAYISSGRWNIYYADTVKGRFTISRDNAKNSLYLQMNSLRAEDTAVYYCARSWGYFDVWGQGTTVTVSS VL: DIVMTQSPDSLAVSLGERATINCKSSQSLLNRGNQKNYLTWFQQKPGQPPKLLIYWASTRESGVPDRFSGSGSGTDFTLTISSLQAEDVAVYYCQNDYTYPLTFGQGTKLEIK | –
236 nM | huAb1v1CDR2v12 (antibody, V domains shown) VH: EVQLVESGGGLVKPGGSLRLSCAASGFTFSDYGMNWVRQAPGKGLEWIAYISSGRKNIYYADTVKGRFTISRDNAKNSLYLQMNSLRAEDTAVYYCARSWGYFDVWGQGTTVTVSS VL: DIVMTQSPDSLAVSLGERATINCKSSQSLLNRGNQKNYLTWFQQKPGQPPKLLIYWASTRESGVPDRFSGSGSGTDFTLTISSLQAEDVAVYYCQNDYTYPLTFGQGTKLEIK | –
21.9 nM | huAb1v1CDR2v14 (antibody, V domains shown) VH: EVQLVESGGGLVKPGGSLRLSCAASGFTFSDYGMNWVRQAPGKGLEWIAYISSGRFNIYYADTVKGRFTISRDNAKNSLYLQMNSLRAEDTAVYYCARSWGYFDVWGQGTTVTVSS VL: DIVMTQSPDSLAVSLGERATINCKSSQSLLNRGNQKNYLTWFQQKPGQPPKLLIYWASTRESGVPDRFSGSGSGTDFTLTISSLQAEDVAVYYCQNDYTYPLTFGQGTKLEIK | –
> 1000 nM | huAb1v1CDR2v8 (antibody, V domains shown) VH: EVQLVESGGGLVKPGGSLRLSCAASGFTFSDYGMNWVRQAPGKGLEWIAYISSGRINIYYADTVKGRFTISRDNAKNSLYLQMNSLRAEDTAVYYCARSWGYFDVWGQGTTVTVSS VL: DIVMTQSPDSLAVSLGERATINCKSSQSLLNRGNQKNYLTWFQQKPGQPPKLLIYWASTRESGVPDRFSGSGSGTDFTLTISSLQAEDVAVYYCQNDYTYPLTFGQGTKLEIK | –
> 1000 nM | huAb1v1CDR2v5 (antibody, V domains shown) VH: EVQLVESGGGLVKPGGSLRLSCAASGFTFSDYGMNWVRQAPGKGLEWIAYISSGRVNIYYADTVKGRFTISRDNAKNSLYLQMNSLRAEDTAVYYCARSWGYFDVWGQGTTVTVSS VL: DIVMTQSPDSLAVSLGERATINCKSSQSLLNRGNQKNYLTWFQQKPGQPPKLLIYWASTRESGVPDRFSGSGSGTDFTLTISSLQAEDVAVYYCQNDYTYPLTFGQGTKLEIK | –
> 1000 nM | huAb1v1CDR2v2 (antibody, V domains shown) VH: EVQLVESGGGLVKPGGSLRLSCAASGFTFSDYGMNWVRQAPGKGLEWIAYISSGRDNIYYADTVKGRFTISRDNAKNSLYLQMNSLRAEDTAVYYCARSWGYFDVWGQGTTVTVSS VL: DIVMTQSPDSLAVSLGERATINCKSSQSLLNRGNQKNYLTWFQQKPGQPPKLLIYWASTRESGVPDRFSGSGSGTDFTLTISSLQAEDVAVYYCQNDYTYPLTFGQGTKLEIK | –
– | huAb1v1 (antibody, V domains shown) VH: EVQLVESGGGLVKPGGSLRLSCAASGFTFSDYGMNWVRQAPGKGLEWIAYISSGRSNIYYADTVKGRFTISRDNAKNSLYLQMNSLRAEDTAVYYCARSWGYFDVWGQGTTVTVSS VL: DIVMTQSPDSLAVSLGERATINCKSSQSLLNRGNQKNYLTWFQQKPGQPPKLLIYWASTRESGVPDRFSGSGSGTDFTLTISSLQAEDVAVYYCQNDYTYPLTFGQGTKLEIK | Antagonist: Jurkat/Reporter assay IC50 (Human CD40 [1]): 55 nM
– | huAb1v2 (antibody, V domains shown) VH: EVQLVESGGGLVKPGGSLRLSCAASGFTFSDYGMNWVRQAPGKGLEWVSYISSGRSNIYYADTVKGRFTISRDNAKNSLYLQMNSLRAEDTAVYYCARSWGYFDVWGQGTTVTVSS VL: DIVMTQSPDSLAVSLGERATINCKSSQSLLNTGNQKNYLTWFQQKPGQPPKLLIYWASTRESGVPDRFSGSGSGTDFTLTISSLQAEDVAVYYCQNDYTYPLTFGQGTKLEIK | Antagonist: Jurkat/Reporter assay IC50 (Human CD40 [1]): > 100 nM
– | huAb1v3 (antibody, V domains shown) VH: EVQLVESGGGLVKPGGSLRLSCAASGFTFSDYGMNWVRQAPGKGLEWVSYISSGRSNIYYADTVKGRFTISRDNAKNSLYLQMNSLRAEDTAVYYCARSWGYFDVWGQGTTVTVSS VL: DIVMTQSPDSLAVSLGERATINCKSSQSLLNLGNQKNYLTWFQQKPGQPPKLLIYWASTRESGVPDRFSGSGSGTDFTLTISSLQAEDVAVYYCQNDYTYPLTFGQGTKLEIK | Agonist: huCD40 reporter assay IC50 (Human CD40 [1]): 79 nM
– | huAb1v4 (antibody, V domains shown) VH: EVQLVESGGGLVKPGGSLRLSCAASGFTFSDYGMNWVRQAPGKGLEWIAYISSGRSNIYYADTVKGRFTISRDNAKNSLYLQMNSLRAEDTAVYYCARSWGYFDVWGQGTTVTVSS VL: DIVMTQSPDSLAVSLGERATINCKSSQSLLNPGNQKNYLTWFQQKPGQPPKLLIYWASTRESGVPDRFSGSGSGTDFTLTISSLQAEDVAVYYCQNDYTYPLTFGQGTKLEIK | Agonist: huCD40 reporter assay IC50 (Human CD40 [1]): 49 nM
